Reference: the nanobody polyreactivity screen of Harvey et al. (2022)

test: yeast display, Sf9 membrane polyspecificity reagent, FACS + sequencing; frameworks hold sequencing errors
Method in brief: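 Synthetic nanobody libraries on Saccharomyces cerevisiae BJ5465 were galactose-induced for 36–48 hours, stained 1 hour at 4 °C with 10% biotinylated, detergent-solubilized Sf9 membrane reagent and enriched on streptavidin microbeads. FACS then separated cells into low and high (top ~1%) gates by anti-HA (expression) and streptavidin (reagent binding) fluorescence. Genes were colony-PCR amplified, MiSeq 2 × 250 sequenced and CDR-length filtered. A clone's polyreactivity label is that of its gate of origin.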

Sequence | polyreactivity (PSR sort gate)
QVQLVESGGGLVQAGGSLRLSCAASGSTFIGNAMGWYRQAPGKERELVAAITSSGGSTYYADSVKGRFTISRDNAKNTVYLQLNSLKPEDTAVYYCAAKTWARGHYGYQARSNYWGQGTQVTVSS | high polyreactivity
QVQLVESGGGLVQAGGSLRLSCAASGSTFIGYVMGWYRQAPGKERELVAAISWTGSNKYYADSVKGRFTISRDNAKNTVYLQMNSLKPEDTAVYYCNARSFAPYKNYDYWGQGTQVTVSS | low polyreactivity
QVQLVESGGGLVQAGGSLRLSCAASGSTFINYARGWYSQAPGKERELVAVITSDDGSTYDADSVKGRFTISRDNAKNTVYLQMNSLKPEDTAVYYCAAYYYDQRYRPGPWYDYWGQGTQVTVSS | low polyreactivity
QVQLVESGGGLVQAGGSLRLSCAASGSTFIPNTMGWYRQAPGKERELVAAISRRGGSTNYADSVKGRFTISRDNAKNTVYLQMNSLKPEDTAVYYCAAVSPRRYRYDYWGQGTQVTVSS | high polyreactivity
QVQLVESGGGLVQAGGSLRLSCAASGSTFIPYAMGWYRQAPGKERELVAAIRGGDGSTYYADSVKGRFTISRDNAKNTVYLQMNSLKPEDTAVYYFAADTVITAYFDRFWRYNYWGQGTQVTVSS | low polyreactivity
QVQLVESGGGLVQAGGSLRLSCAASGSTFIPYAMGWYRQAPGKERELVAAISFNDGITYYADSVKGRFKISRDNAKNTVYLQMNSLKPEDTAVYYCAAEDWSDYPYGMDYWGQGTQVTVSS | high polyreactivity
QVQLVESGGGLVQAGGSLRLSCAASGSTFIRNAMGWYRPAPGKERELVAAISSSGGRTYYADSVKGRFTISRDNAKNTVYLQMNSLKPEDTAVYYCAARNARYVHTMEYWGQGTQVTVSS | high polyreactivity
QVQLVESGGGLVQAGGSLRLSCAASGSTFISYAMGWYRQAPGKERELVAAIRYRDGRTYYADSVKGRFTNSRDNAKNTVYLQMISLKPEDTAVYYCAAKYRGLYSGMYYWGQGTQVTVSS | high polyreactivity
QVQLVESGGGLVQAGGSLRLSCAASGSTFISYDMGWYRQAPGKERELVADITSVGGSTYYADSVKGRFTISRDNAKNTVYLQMNSLKPEDTAVYYCNAEAEWEEEGGSWGQGTQVTVSS | low polyreactivity
QVQLVESGGGLVQAGGSLRLSCAASGSTFIVNAMGWYRQAPGKERELVATISGGDSTDYADSVKGRFTISRDNAKNTVYLQMNSLKPEDTAVYYCNSDVHQYYFTPYDYWGQGTQVTVSS | low polyreactivity
QVQLVESGGGLVQAGGSLRLSCAASGSTFIVYAMGWYRQAPGKERELVASITWRGGSTYYADSVKGRFTISRDNAKNTVYFQMNSLKPEDTAVYYCARGYETTNYQKFYITDDGDYWGQGTQVTVSS | low polyreactivity
QVQLVESGGGLVQAGGSLRLSCAASGSTFIWNAMGSYRQAPGKERELVAAISSGGSTYYADSVKGRFTISRDNAKNTVYLQMNSLKPEDTAVYYCAAEYVYNVWEQRYAVYSTDDYWGQGTQVTVSS | low polyreactivity
QVQLVESGGGLVQAGGSLRLSCAASGSTFIWNAMGWYRQAPGKERELVATITGSGDRTTYADSVKGRFTISRDNAKNTVYLQMNSLKPEDTAVYYCAADAYRWWVRYDYWGQGTQVTVSS | low polyreactivity
QVQLVESGGGLVQAGGSLRLSCAASGSTFIYNAMGWYRQAPGKERELVAAISSGGSTYYADSVKGRFTISRDNAKNTVYLQMNSLKPEDTAVYYCNAYRYRHYRVDYWGQGTQVTVSS | low polyreactivity
QVQLVESGGGLVQAGGSLRLSCAASGSTFIYNTMGWYRQAPGKEREFVAAITQSGGDTYYADSVKGRFTISRDNAKNTVYLQMNSLKPEDTADYYCAAYWILNNFEMYYWGQGPQVTVSS | low polyreactivity
QVQLVESGGGLVQAGGSLRLSCAASGSTFIYYAMGWYRQAPGKERELVAAITSAGRTNYADSVKGRFTISRDNAKNTVYLQMNSLKPEDTAVYYCAAAYRPRKHHYDYWGQGTQVTVSS | high polyreactivity
QVQLVESGGGLVQAGGSLRLSCAASGSTFIYYAMGWYRQAPGKERELVAVITGNGGRTYYADSVKGRFTISRDNAKNTVYLQMNSLKPEDTAVYYCAALYDGIYDSWGQGTQVTVSS | high polyreactivity
